Assay results: the supplement of paper PMC9732359
± gives the uncertainty stated by the source.

Test: protein stability index of a GFP-peptide fusion (yeast GPS) (PSI 1-4); higher = more stable; sorted into four equal gates, so the index is relative within each strain
Procedure, shortened: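 Plasmids isolated from each sorting gate were PCR-amplified and Illumina-sequenced, and barcodes assigned the reads to strains. The gates, four of equal size, were set by GFP/Cherry fluorescence ratio on mid-log cultures in leucine-free medium. These cultures were yeast carrying a pooled library of tiled 17-residue yeast protein peptides fused downstream of GFP on a plasmid that also expresses Cherry. The protein stability index is the sum of every gate's read frequency times its gate number.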

Sequence | protein stability index (doa10∆) | protein stability index (pdr5∆) | protein stability index (san1∆) | protein stability index (ubr1∆)
YKNHELLKLERKKTEAV [SNF2] | 3.14 ± 0.081 | 3.17 ± 0.074 | 3.08 ± 0.05 | 3.13 ± 0.064
SLKALASKYNCDKSVCR [RPL40A] | 3.08 ± 0.069 | 2.97 ± 0.089 | 3.12 ± 0.054 | 2.94 ± 0.087
FEYSKYRPLTPSSEVYS [RRP6] | 3.07 ± 0.086 | 3.01 ± 0.071 | 2.87 ± 0.053 | 2.83 ± 0.056
KSNGSSDDDNIGQSEEL [ISW2] | 3.3 ± 0.1 | 3.44 ± 0.09 | 3.31 ± 0.08 | 3.42 ± 0.12
DGKLEPSTRSNFILEVF [YJL039C/NUP192] | 1.63 ± 0.081 | 1.61 ± 0.067 | 1.92 ± 0.14 | 1.33 ± 0.069
SAKNRVVILARAKALGI [RPL32] | 1.69 ± 0.05 | 1.74 ± 0.061 | 1.76 ± 0.081 | 2.05 ± 0.042
VAGAGAASGAAAAGGDA [RPP1B] | 3.09 ± 0.18 | 2.79 ± 0.092 | 3.22 ± 0.22 | 2.62 ± 0.078
CSGSGMGGVSALRGMFK [FAS2] | 3.64 ± 0.097 | 3.68 ± 0.08 | 3.37 ± 0.096 | 3.43 ± 0.067
MDAYSTRPLTLSHGSLE [FAS1] | 3.18 ± 0.11 | 3.15 ± 0.1 | 3.05 ± 0.093 | 3.3 ± 0.087
IINKVLDYQETYVEELF [YJL039C/NUP192] | 2.2 ± 0.1 | 2.87 ± 0.15 | 2.76 ± 0.12 | 2.6 ± 0.075
NSQERVQDLGSAISVTN [SIR2] | 2.45 ± 0.16 | 3.11 ± 0.11 | 3.01 ± 0.092 | 3.25 ± 0.19
ALEYIGAKVKTMRRQKL [RET1] | 2.1 ± 0.069 | 2.48 ± 0.097 | 2.22 ± 0.089 | 2.19 ± 0.066
QVLSQSADPSLLIDQFS [SWI1] | 3.03 ± 0.1 | 2.96 ± 0.073 | 3.02 ± 0.084 | 2.99 ± 0.057
FLKLVLSESPVDFEKFE [SIN4] | 2.58 ± 0.047 | 2.69 ± 0.069 | 2.66 ± 0.07 | 2.7 ± 0.067
KIPILAQHESFLRQKIC [RPN9] | 1.72 ± 0.046 | 2.06 ± 0.055 | 1.85 ± 0.076 | 2.14 ± 0.038
GKRHIFDVNTLCLMTWK [CDC53] | 1.25 ± 0.061 | 1.75 ± 0.066 | 1.44 ± 0.14 | 2.08 ± 0.085
ALIDAGISMFDYISGIS [SKI6] | 1.48 ± 0.064 | 1.5 ± 0.046 | 2.3 ± 0.099 | 1.68 ± 0.037
KKCIDFFEMLISKSLTF [RRI2] | 2.13 ± 0.055 | 2.13 ± 0.041 | 1.96 ± 0.061 | 2.27 ± 0.038
KNWQNVGSLVVKSSMGP [RPL1A] | 2.1 ± 0.046 | 2.39 ± 0.051 | 2.7 ± 0.064 | 2.29 ± 0.045
LVLDLLTWLSSFSVCKI [IRR1] | 2.21 ± 0.06 | 1.59 ± 0.05 | 1.65 ± 0.073 | 1.71 ± 0.039

Sequence | protein stability index (doa10∆) | protein stability index (pdr5∆) | protein stability index (san1∆) | protein stability index (ubr1∆)
FVKVTKATLELLKLIEP [RPL7A] | 3.06 ± 0.11 | 2.87 ± 0.096 | 2.62 ± 0.15 | 2.91 ± 0.13
PNFNVEIMQQKFPATNV [ECM29] | 2.25 ± 0.26 | 3 ± 0.2 | – | 2.86 ± 0.17
MNAILTDVKLTLPQPRL [SMD1] | 2.98 ± 0.079 | 2.96 ± 0.097 | 2.65 ± 0.079 | 3.11 ± 0.076
LDPLEMEGNAQPVNFNR [RPO31] | 3.37 ± 0.09 | 3.29 ± 0.081 | 2.93 ± 0.1 | 2.97 ± 0.1
FTLWWSPTINRANVYVG [PRP8] | 1.99 ± 0.089 | 1.88 ± 0.07 | 1.61 ± 0.15 | 2.04 ± 0.051
CNEEQTLEAKIGGLLSK [RPO31] | 3.16 ± 0.059 | 3.25 ± 0.059 | 2.99 ± 0.052 | 2.91 ± 0.05
PSPISHVAEIRSALEKG [RPB2] | 1.68 ± 0.076 | 1.93 ± 0.066 | 1.68 ± 0.09 | 1.76 ± 0.053
MKSLLTELSNKETTIEK [YIL149C/MLP2] | 3.23 ± 0.13 | 3 ± 0.12 | 3.41 ± 0.07 | 3.25 ± 0.062
PEESKPINLQNGEEDEV [YLR335W/NUP2] | 2.9 ± 0.075 | 2.92 ± 0.077 | 3.1 ± 0.046 | 3.1 ± 0.062
MSDSPLSKRQKRKSAQE [SMC4] | 3.46 ± 0.17 | 3.16 ± 0.11 | 3.04 ± 0.12 | 3.46 ± 0.27
EMSNKVLKVDKRFMNTS [BRR2] | 2.9 ± 0.04 | 2.96 ± 0.05 | 2.99 ± 0.038 | 2.93 ± 0.039
VKNNQELDQEYRSCETQ [SMC4] | 2.95 ± 0.2 | – | – | –
TSTGTTIVGVKFNNGVV [PUP1] | 2.55 ± 0.12 | 3.14 ± 0.11 | 3.01 ± 0.14 | 2.71 ± 0.095
QRLVTPQRLQRKRHQRA [RPS6A] | 2.64 ± 0.059 | 3.13 ± 0.05 | 3.23 ± 0.039 | 3.09 ± 0.035
FYRGNYTDFENTFQKTV [FAS1] | 2.41 ± 0.074 | 2.63 ± 0.062 | 2.34 ± 0.1 | 2.67 ± 0.056
YDLVDNKGAKAEDVALN [NAS6] | 2.8 ± 0.14 | 3.39 ± 0.27 | 2.87 ± 0.12 | 3.07 ± 0.071
HAGTAIGIMASDGIVLA [PRE9] | 2.96 ± 0.095 | 3.02 ± 0.14 | 3.09 ± 0.1 | 2.42 ± 0.14
IKHSKCRQEFLERVKAN [RPL21A] | – | 3.1 ± 0.23 | – | –
NSSKYYINEKESSYTEV [SMC4] | 3.2 ± 0.22 | 2.38 ± 0.1 | 2.43 ± 0.12 | 1.89 ± 0.11
